Data set [1] has as its target T1, HOW-STAR (STAR domain of Held out wings) (Drosophila melanogaster, UniProt O01367 72-266).
T1 sequence: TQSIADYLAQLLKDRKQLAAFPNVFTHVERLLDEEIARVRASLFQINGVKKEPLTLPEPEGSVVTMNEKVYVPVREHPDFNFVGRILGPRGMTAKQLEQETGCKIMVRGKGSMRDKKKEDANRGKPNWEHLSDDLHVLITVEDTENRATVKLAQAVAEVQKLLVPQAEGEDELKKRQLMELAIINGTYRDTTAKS
The experiment in a line: fluorescence anisotropy; apparent KD; RNA binding buffer: 20 mM Tris-HCl pH 7.5, 150 mM NaCl, 0.01% Triton X-100; 20 uL of 5 nM labelled RNA in about 60 uL; at least 45 min equilibration; temperature not stated. The note with it: protein: recombinant; tags: His6-GST removed by 3C protease; chain copies: 2; label: 3' 6-carboxyfluorescein.

For data set [2], the target named is T1, HOW-STAR (STAR domain of Held out wings). In words: fluorescence anisotropy; apparent KD; text: did not bind in the low nanomolar range; RNA binding buffer: 20 mM Tris-HCl pH 7.5, 150 mM NaCl, 0.01% Triton X-100; 20 uL of 5 nM labelled RNA in about 60 uL; at least 45 min equilibration; temperature not stated. The following applies: protein: recombinant; tags: His6-GST removed by 3C protease; chain copies: 2; label: 3' 6-carboxyfluorescein. For orientation: In fluorescence polarisation assays a small probe gives low polarisation when free and higher when bound to something large.

Here are results for nine molecules from PMC12868882, “Held out wings RNA binding activity in the cytoplasm during early spermatogenesis”.

As for AGCAGCUGACAAUU (ssRNA) [Hipk-RA A8G], the Kd in data set [1] is 85.3 nM.

With AGCAGCUAACAAUU (ssRNA) [Hipk-RA], the Kd in data set [1] turned out to be 10.1 nM.

For the molecule AGCAACUAACAAUU (ssRNA) [Hipk-RA G5A], in data set [1], the Kd came to 4.65 nM.

AGCACCUAACAAUU (ssRNA) [Hipk-RA G5C]: in data set [1], the Kd amounted to 20.4 nM.

On to AGCAUCUAACAAUU (ssRNA) [Hipk-RA G5U], for which the Kd in data set [1] was 12.4 nM.

With ACACACUAACUCGU (ssRNA) [Lola], the Kd in data set [1] worked out at 6.05 nM.

In the case of ACACACUAACUCGUAACUAUG (ssRNA) [Lola + half-site], in data set [1], the Kd was 9.25 nM.

Regarding UACAACUAACAACUAACAGAU (ssRNA) [Hipk double motif], the Kd in data set [1] stood at 7.46 nM.

With GUUGGCGUGUUUU (ssRNA) [Jvl], in data set [2], the Kd worked out at 803 nM.
